The values that follow come from patent publication US20110081659.

This data set addresses T1, ULight-labeled 4E-BP1 fragment peptide GSK3 substrate (non-primed).
T1 chain: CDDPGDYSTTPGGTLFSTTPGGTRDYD

B1: GSK3α (Carna) (protein)
chain: MSGGGPSGGGPGGSGRARTSSFAEPGGGGGGGGGGPGGSASGPGGTGGGKASVGAMGGGVGASSSGGGPGGSGGGGSGGPGAGTSFPPPGVKLGRDSGKVTTVVATLGQGPERSQEVAYTDIKVIGNGSFGVVYQARLAETRELVAIKKVLQDKRFKNRELQIMRKLDHCNIVRLRYFFYSSGEKKDELYLNLVLEYVPETVYRVARHFTKAKLTIPILYVKVYMYQLFRSLAYIHSQGVCHRDIKPQNLLVDPDTAVLKLCDFGSAKQLVRGEPNVSYICSRYYRAPELIFGATDYTSSIDVWSAGCVLAELLLGQPIFPGDSGVDQLVEIIKVLGTPTREQIREMNPNYTEFKFPQIKAHPWTKVFKSRTPPEAIALCSSLLEYTPSSRLSPLEACAHSFFDELRCLGTQLPNNRPLPPLFNFSAGELSIQPSLNAILIPPHLRSPAGTTTLTPSSQALTETPTSSDWQSTDATPTLTNSS
B1: the S/B, LANCE Ultra kinase assay, 20 nM enzyme, n = 1 stood at 35.7 and the S/B, LANCE Ultra kinase assay, 20 nM enzyme, n = 2 came to 33.2.
